Assay results taken from patent publication US20210040181A1 (Bristol-Myers Squibb, published 2021).

Key:
EGFR 525-Fc (human) = EGFR 525-Fc (human) (UniProt P00533); experiment: direct binding ELISA, single point; clone captured by anti-His, 50 nM receptor-Fc, anti-human Fc HRP
[1] = target: EGFR-Fc (R&D Systems), ectodomain of human EGFR as a Fc fusion (human) (UniProt P00533); experiment: as above
[2] = target: T1, EGFR-Fc (R&D Systems), ectodomain of human EGFR as a Fc fusion (human, UniProt P00533 25-645); experiment: as above
T1 construct: extracellular domain; Bought from R&D Systems; also called EGFR-FL-Fc; full length EGFR Fc fusion protein; not shown: Fc of the purchased fusion
Description: Proteins encoded by independent clones were analyzed for binding to the full length ectodomain of EGFR as well as a truncated version containing the first 525 amino acids (EGFR 525) of the EGFR ectodomain in single point direct binding assays. Anti-His antibodies were used to capture protein clones in an oriented fashion followed by incubation with full length EGFR or EGFR 525 Fc fusion proteins. Bound receptor-Fcs were detected via anti-human Fc HRP conjugate with a chromogenic readout (i.e. A450). […] The SGE control is the ¹⁰FN3 domain as shown in SEQ ID NO: 1 with the integrin binding domain (RGD) substituted with amino acids SGE.
The protein populations resulting from the above selections are expressed in E. coli as His6 tagged proteins. The direct binding ELISA relies on the oriented capture of His6 tagged clones onto anti-His monoclonal antibody plates (EMD Biosciences, San Diego, Calif.) blocked with casein block buffer (Pierce, Rockford, Ill.) for 1-2 hrs. Typically a 1:50 dilution of HTPP material (0.2-2 ug) is captured for 1 hr, followed by incubation with 50 nM of the EGFR-Fc targets. Bound EGFR-Fcs are detected by incubation with anti-human HRP. Bound HRP conjugate is detected using the colorimetric substrate TMB (BD Biosciences, San Jose, Calif.) following the manufacturer's instructions.

[3] = target: T2, EGFR on the surface of human A431 cells (human, UniProt P00533 25-1210); experiment: competition with 10 nM Eu-EGF on A431 cells, time resolved fluorescence; Midscale preparation
T2 construct: whole, on cells; also called HER-1; EGF receptor on cells
Description: (§1) Human epithelial carcinoma cells, clone A431, which express large numbers of EGFRs on the cell surface, are plated into 96 well tissue culture plates and allowed to adhere for 48 hours. The cells are washed with serum free media and dilutions of the selected clones are incubated with the cells for 15 minutes, 37° C. in a humidified incubator in 5% CO₂. This incubation allows binding of the clone to the EGFR on the cell surface.

[4] = target: T2, EGFR on the surface of human A431 cells; experiment: cell-based or functional assay
[5] = target: T2, EGFR on the surface of human A431 cells; experiment: competition with 10 nM Eu-EGF on A431 cells, time resolved fluorescence; protein diluted in PBS buffer
Description: as §1

[6] = target: T2, EGFR on the surface of human A431 cells; experiment: competition with 10 nM Eu-EGF on A431 cells, time resolved fluorescence; protein diluted in Tris buffer
Description: as §1

[7] = target: T2, EGFR on the surface of human A431 cells; experiment: cell-based competitive ligand binding assay on A431 cells, competitor Eu-EGF, time-resolved fluorescence (RFUs); parameter C of the four-parameter fit y = ((A - D)/(1 + (x/C)^B)) + D, x axis in nM; the legend calls C the IC50 but prints 258.258
Description: as §1

| A450 (EGFR 525-Fc (human)) [A450] | A450 [2] [A450] | Molecule | other results |
| --- | --- | --- | --- |
| 0.139 |  | SGE control (10FN3 domain of SEQ ID NO: 1 with RGD substituted with SGE) (designed binder) | A450 [1]: 0.143 A450 |
| 0.539 | 0.213 | 679B01 (designed binder, 10Fn3-based clone expressed in E. coli as His6 tagged protein; not shown: His6 tag) VSDVPRDLEVVAATPTSLLISWLLLGAPCRYYRITYGETGGNSPVQEFTVPWMGLTATISGLKPGVDYTITVYAVTSERAPCVKVWRCPISINYRT |  |
| 2.32 | 2.78 | 867F10 (designed binder, 10Fn3-based clone expressed in E. coli as His6 tagged protein; not shown: His6 tag) VSDVPRDLEVVAATPTSLLISWHNTYKDYRYYRITYGETGGNSPVQEFTVPHMAYNTATISGLKPGVDYTITVYAVTVTMQALLYSIPISINYRT |  |
| 1.74 | 1.38 | 679B10 (designed binder, 10Fn3-based clone expressed in E. coli as His6 tagged protein; not shown: His6 tag) VSDVPRDLEVVAATPTSLLISWRLTAPLGRYYRITYGETGGNSPVQEFTVPDIPFTATISGLKPGVDYTITVYAVTLSDSAHGGLRDVPISINYRT |  |
| 0.925 | 0.787 | 679A10 (designed binder, 10Fn3-based clone expressed in E. coli as His6 tagged protein; not shown: His6 tag) VSDVPRDLEVVAATPTSLLISWDRMLSFLRYYRITYGETGGNSPVQEFTVPLIYPTATISGLKPGVDYTITVYAVTVQLLDQCLRIHGPISINYRT |  |
| 0.803 | 0.467 | 679C10 (designed binder, 10Fn3-based clone expressed in E. coli as His6 tagged protein; not shown: His6 tag) VSDVPRDLEVVAATPTSLLISWSRYAPGGRYYRITYGETGGNSPVQEFTVPDVPWTATISGLKPGVDYTITVYAVTLSNYEYLARNPISINYRT |  |
| 2.45 | 2.37 | 679F03 (designed binder, 10Fn3-based clone expressed in E. coli as His6 tagged protein; not shown: His6 tag) VSDVPRDLEVVAATPTSLLISWYHYYSGSQRYYRITYGETGGNSPVQEFTVPHEVYTATISGLKPGVDYTITVYAVTDYAYKEYEEYPISINYRT | IC50 [3]: 26.8 nM |
| 2.55 | 2.96 | 867B10 (designed binder, 10Fn3-based clone expressed in E. coli as His6 tagged protein; not shown: His6 tag) VSDVPRDLEVVAATPTSLLISWKSVYVDYRYYRITYGETGGNSPVQEFTVPHSNLTATISGLKPGVDYTITVYAVTVYESYVANDSPISINYRT |  |
| 2.49 | 2.61 | 867B08 (designed binder, 10Fn3-based clone expressed in E. coli as His6 tagged protein; not shown: His6 tag) VSDVPRDLEVVAATPTSLLISWSGSYKSYRYYRITYGETGGNSPVQEFTVPHYDHATATISGLKPGVDYTITVYAVTVDYTAVQVSYPISINYRT |  |
| 1.79 | 1.9 | 867H08 (designed binder, 10Fn3-based clone expressed in E. coli as His6 tagged protein; not shown: His6 tag) VSDVPRDLEVVAATPTSLLISWLRVPAYDRYYRITYGETGGNSPVQEFTVPDVPWTATISGLKPGVDYTITVYAVTLDESDMRVGVPISINYRT |  |
| 2.41 | 2.77 | 867B09 (designed binder, 10Fn3-based clone expressed in E. coli as His6 tagged protein; not shown: His6 tag) VSDVPRDLEVVAATPTSLLISWYLSHSYMRYYRITYGETGGNSPVQEFTVPVIHYTATISGLKPGVDYTITVYAVTSDKISVTVSGPISINYRT |  |
| 1.53 | 1.57 | 679A01 (designed binder, 10Fn3-based clone expressed in E. coli as His6 tagged protein; not shown: His6 tag) VSDVPRDLEVVAATPTSLLISWARYAGSDRYYRITYGETGGNSPVQEFTVPDVPFTATISGLKPGVDYTITVYAVTMGHAPTVDIHWTPSPISINYRT |  |
| 2.18 | 2.43 | 867C07 (designed binder, 10Fn3-based clone expressed in E. coli as His6 tagged protein; not shown: His6 tag) VSDVPRDLEVVAATPTSLLISWHSNYVDYRYYRITYGETGGNSPVQEFTVPHISDITATISGLKPGVDYTITVYAVTVEDMVRESYPPISINYRT |  |
| 2.47 | 2.42 | 679F09 (designed binder, 10Fn3-based clone expressed in E. coli as His6 tagged protein; also called clone 679F09; not shown: His6 tag) VSDVPRDLEVVAATPTSLLISWQVPRPMYQRYYRITYGETGGNSPVQEFTVPGGVRTATISGLKPGVDYTITVYAVTDYMHSEYRQYPISINYRT | EGF-stimulated EGFR phosphorylation on tyrosine 1068, A431 cells (In Cell Western), IC50 [4]: 2800 nM; EGF-stimulated EGFR phosphorylation on tyrosine 1068, DiFi cells (ELISA), IC50 [4]: 1490 nM; EGF-stimulated EGFR phosphorylation on tyrosine 1068, FaDu cells (In Cell Western), IC50 [4]: 1300 nM; EGF-stimulated ERK phosphorylation, A431 cells (In Cell Western), IC50 [4]: 3100 nM; EGF-stimulated ERK phosphorylation, DiFi cells (ELISA), IC50 [4]: > 4000 nM; EGF-stimulated ERK phosphorylation, FaDu cells (In Cell Western), IC50 [4]: 2000 nM; EGF-stimulated total EGFR phosphorylation, A431 cells (In Cell Western), IC50 [4]: 2400 nM; EGF-stimulated total EGFR phosphorylation, DiFi cells (ELISA), IC50 [4]: 5300 nM; IC50 [3]: 14.7 nM; IC50 [5]: 13 nM; IC50 [6]: 20 nM |
| 1.43 | 1.42 | 867E02 (designed binder, 10Fn3-based clone expressed in E. coli as His6 tagged protein; not shown: His6 tag) VSDVPRDLEVVAATPTSLLISWIRRAKPGRYYRITYGETGGNSPVQEFTVPDVPWTATISGLKPGVDYTITVYAVTLDGVRRVGYLDHPISINYRT |  |
| 0.375 | 0.455 | 679B09 (designed binder, 10Fn3-based clone expressed in E. coli as His6 tagged protein; not shown: His6 tag) VSDVPRDLEVVAATPTSLLISWMRWYAPRRYYRITYGETGGNSPVQEFTVPFWQGTATISGLKPGVDYTITVYAVTRGQSGLGMPISINYRT |  |
| 0.128 | 2.1 | 679G06 (designed binder, 10Fn3-based clone expressed in E. coli as His6 tagged protein; not shown: His6 tag) VSDVPRDLEVVAATPTSLLISWYSDYYDNRYYRITYGETGGNSPVQEFTVPRYMMTATISGLKPGVDYTITVYAVTYSYHDPNPMMPISINYRT |  |
| 0.137 | 1.4 | 867A01 (designed binder, 10Fn3-based clone expressed in E. coli as His6 tagged protein; not shown: His6 tag) VSDVPRDLEVVAATPTSLLISWQQQHTNYRYYRITYGETGGNSPVQEFTVPGRASTATISGLKPGVDYTITVYAVTEHPYYGDPPISINYRT | IC50 [7]: 258 nM |
| 1.68 | 1.72 | 867E05 (designed binder, 10Fn3-based clone expressed in E. coli as His6 tagged protein; not shown: His6 tag) VSDVPRDLEVVAATPTSLLISWNRHAMASRYYRITYGETGGNSPVQEFTVPDVPFTATISGLKPGVDYTITVYAVTMSDKAMDMRTPSIGPISINYRT |  |
| 1.57 | 1.95 | 867C04 (designed binder, 10Fn3-based clone expressed in E. coli as His6 tagged protein; not shown: His6 tag) VSDVPRDLEVVAATPTSLLISWESKYVNYRYYRITYGETGGNSPVQEFTVPHLMTATISGLKPGVDYTITVYAVTVGGDHMYSSLPISINYRT |  |
| 1.72 | 1.43 | 679A05 (designed binder, 10Fn3-based clone expressed in E. coli as His6 tagged protein; not shown: His6 tag) VSDVPRDLEVVAATPTSLLISWARYAECGRYYRITYGETGGNSPVQEFTVPDVPWTATISGLKPGVDYTITVYAVTLGKPPLPGWVSGLDPISINYRT |  |
| 1.85 | 2.3 | 867A03 (designed binder, 10Fn3-based clone expressed in E. coli as His6 tagged protein; not shown: His6 tag) VSDVPRDLEVVAATPTSLLISWTYRHYPERYYRITYGETGGNSPVQEFTVPDPDSTATISGLKPGVDYTITVYAVTYNHSSTPISINYRT |  |
| 1.61 | 1.87 | 867A05 (designed binder, 10Fn3-based clone expressed in E. coli as His6 tagged protein; not shown: His6 tag) VSDVPRDLEVVAATPTSLLISWYYRKYPGRYYRITYGETGGNSPVQEFTVPDEHTTATISGLKPGVDYTITVYAVTYDSPSQPISINYRT |  |
